Molecular target: T1, Cauliflower mosaic virus translation transactivator/viroplasmin (TAV), strain CM1841, fused to the Gal4 … (Cauliflower mosaic virus (strain CM1841), UniProt P03558 1-520)
T1 sequence: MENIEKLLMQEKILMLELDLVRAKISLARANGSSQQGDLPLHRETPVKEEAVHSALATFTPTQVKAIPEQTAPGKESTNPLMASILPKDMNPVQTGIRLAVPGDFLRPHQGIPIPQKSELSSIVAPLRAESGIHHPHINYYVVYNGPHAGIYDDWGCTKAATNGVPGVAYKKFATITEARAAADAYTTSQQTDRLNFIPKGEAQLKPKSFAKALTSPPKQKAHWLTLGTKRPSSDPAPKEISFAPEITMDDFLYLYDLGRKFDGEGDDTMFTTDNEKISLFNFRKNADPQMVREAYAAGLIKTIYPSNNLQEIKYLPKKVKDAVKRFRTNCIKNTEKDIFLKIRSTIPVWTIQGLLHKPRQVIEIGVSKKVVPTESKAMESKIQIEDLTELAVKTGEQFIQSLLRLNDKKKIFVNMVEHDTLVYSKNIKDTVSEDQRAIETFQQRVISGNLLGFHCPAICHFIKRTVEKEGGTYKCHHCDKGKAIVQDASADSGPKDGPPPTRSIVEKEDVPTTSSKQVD
Assay: cell-based or functional assay

B1: VARICOSE (VCS), entire protein, fused to the Gal4 activation domain (natural protein, A. thaliana, UniProt Q9LTT8 1-1344, looked up)
chain: MASSPGNTNPHNTPPFDLGILFKPSSNPYPPPAASYPPPTGPFLHNQYDQQHYAPPGISAQPSPVTQQQQDVSSSSAATNLHPQRTLSYPTPPLNLQSPRSNHNPGTHILALLNNTNNGAPVANQEPSHQLPVVNHNEIARSFPGGSGPIRVPSCKLPKGRRLIGEHAVYDVDVRLQGEIQPQLEVTPITKYGSDPQLVVGRQIAVNKVYICYGLKGGNIRVLNINTALRSLFRGHSQRVTDMAFFAEDVDMLASVSLDGKVFVWKISEGSEGEDQPQITGKIVLALQILGEEDTKHPRVCWHCHKQEILVVSIGKHVLRIDTTKVGRGEVFSAEAPLQCPLDKLIDGVQIVGKHDGEVTDLSMCQWMTTRLVSSSVDGTIKIWQDRKAQPLVVLRPHDGHPVSSATFVTSPERPDHIILITGGPLNREMKIWVSAGEEGWLLPADAESWRCTQTLDLKSSTEPRAEEAFFNQVIALSEAGLLLLANAKRNALYAVHLDYGSSPVGTRMDYLSEFTVTMPILSFIGTNDPPEEPIVKVYCVQTLAIQQYTLDLCLCLPPPIENMGLEKSDSSVSREANLVEGMSEPSGLKPTDLPSVDSVPKPSIIVNRSESANKLSFPSAEATSQAIVPPNGEPKTSGLPSQTSGAGSAYATLPQLPLSPRLSSKLSGYHTPVEAIEPVIPHHELGGKTPSADYSVDRQMDAVGERNLDVSSVEEISRSKDSNVTPDDDVSGMRSPSAFFKHPTHLVTPSEILMGVSSAEASITTEDRRDRDANIQDVNNDPRDTEVEVKEISEARSTQNGEINDHDETENCTSENREKVFCSQVSNLSTEMARDCYPSTEGTFIPGESKAYGQPIKAGDESGVDSRGGPAKLLKGKKQKAKNSQGPGLSSTSSNVANLADSFNEQSQSLSHPMTDLLPQLLAMQETMNQVMASQKEMQRQLSNAATGPIGKESKRLEVALGRMIEKSSKSNADALWARIQEETVKNEKALRDHAQQIVNATTNFMSKELNAMFEKTIKKELAAIGPALARSVVPVIEKTVSSAITESFQRGIGDKAVNQLDKSVNIKLEATVARQIQAQFQTSGKQALQEGLRSSVESSVIPSFEKACKAMFDQIDSAFQKGIAEHTNAAQQRFDSGHSQLAHTLKESITSASSVAQALSRELAETQRNLLALAAAGANSGGSNSLVTQLSGGPLGALLEKVEAPMDPTTELSRLISERKYEESFTSALQRSDVSIVSWLCSQVDLRGLLAMNPLPLSQGVLLSLLQQLACDISKDTSRKLAWMTDVVAAINPSDQMIAVHARPIFEQVYQILHHHRNAPGSDVSAIRLIMHVINSMLMGCK
With B1 the “GFPabc mRNA level by qRT-PCR in N. benthamiana leaves co-infiltrated with pGFPabc, pVCS and pTAV against pTAV alone” value was 3 fold.
